Test results reported in the DeepSol protein solubility set.

Assay: soluble on expression in E. coli; label from the status in PepcDB or PDB records

## MSLSINSETLVNHMNHEIAAIQPSDILAFNAEIANIPGIVRLTLGEPDFNTPEHVKQAAIESIEADESHYAPSNGTLALRTAAAEFLAAKYDVHYDPASEVIITAGATGGIYTALTSILNPGDEVLIPTPIFPLYIAIVKLSGATPVFMDTSDNGFVLSPDQLQTTLAAHPKTKAVVLNFPSNPTGVTYRHDDLKALAAVLADQPIFVLSDEIYSELTYGEPHESIANYLPTQTILLNGVSKSHAMTGWRIGIMCAPKAITAQLGKIHQFTVTSTTTNAQAAAAGLKQLTSRTAGVDTIDIPAAKAAGLVVTNVEGHHHHHH
  soluble on expression in E. coli: not soluble

## MGSDKIHHHHHHMAFKTPLADRMRPQSLEQMVGQQDLLKAGQPLRQIIDQHVNIPLILWGPPGTGKTSLAQIIASQDDYPFVAFNASTENKAQLTKAIAQYPEQSFVLLIDEIHRMTKTLQDFLLPYLENGHVMLIGSTTENPIMSIVPAIRSRCQIFEFQPLSDTDIEIALRRAVTDIYNLTDDQVDAKALNLIAISAEGDLRIALNILETLHAIDQKQITVAAVQHFAQQQHFSYDRKATKHYDYLSAYSDSMAGSDTDAALYYLTILLKNDDLPSVVRRLREIPYTYIGLANPEQVTQIVVAANQAEKIGMPKAKYPLMFATMLMCISPKSGSFDQSWEKLDQDTQNPSQHPMPRGLRDMHYKHSEEITGGGLIDNPFQMPHQIAQQNYMPKGLAGRRYYYPKDNENERKLGAQYLKLHRFIYNEDYHE
  soluble on expression in E. coli: not soluble

## AHHHHHHGSPPIIDPHILRSLHRSELRRRILHYLYEIYPSATYLSEIARVVSSDPSNVRGALVGLGNRYNSESSLVYLGLVEEIVNNGFKYYRLTEYGKKVVEMLKDYQTYYRKFM
  soluble on expression in E. coli: not soluble

## GAACNVLFINSVEMESLTGPQAISKAVAETLVADPTPTATIVHFKVSAQGITLTDNQRKLFFRRHYPLNTVTFCDLDPQERKWTKTDGSGPAKLFGFVARKQGSTTDNVCHLFAELDPDQPAAAIVNFVSRVML
  soluble on expression in E. coli: soluble

## MSLHDKQELSSKSNLNNQKGYLDNEGANSNYESKKQSILSELNQLLKQTTNSLKEAKNTTDNLNASNEANKVVEAVINAVNLISSAADQVKSATKNMHDLAQMAEIDLEKIKNSSDKAIFASNLAKEAYSLTKAAEQNMQKLYKEQQKISESESESDYSDSAEIKQAKEAVEIAWKATVEAKDKLIDVENTVKETLDKIKTETTNNTKLADIKEAAELVLQIAKNAKEIVQEVVALLNTEGHHHHHH
  soluble on expression in E. coli: soluble

## MAEQLSPGKAVDQVCTFLFKKPGRKGAAGRRKRPACDPEPGESGSSSDEGCTVVRPEKKRVTHNPMIQKTRDSGKQKAAYGDLSSEEEEENEPESLGVVYKSTRSAKPVGPEDMGATAVYELDTEKERDAQAIFERSQKIQEELRGKEDDKIYRGINNYQKYMKPKDTSMGNASSGMVRKGPIRAPEHLRATVRWDYQPDICKDYKETGFCGFGDSCKFLHDRSDYKHGWQIERELDEGRYGVYEDENYEVGSDDEEIPFKCFICRQSFQNPVVTKCRHYFCESCALQHFRTTPRCYVCDQQTNGVFNPAKELIAKLEKHRATGEGGASDLPEDPDEDAIPIT
  soluble on expression in E. coli: soluble

## MDNTYRDEKVNGCGPGDVNLMLELLEKGEKIGGKSADQSSLFVALCRSVGIPAREVFGIRVLPSSFSEGLSIKPGSKDITKAQHCRAEFWAGEWIPVDPADVTKLILKEKLPRNHPRVNFARRYFFGNWDPHWIAYNWGRDFVLEPPQRVKPLNLFGYPYAEVKGEPLNWLEPKSFVYRIKLVRA
  soluble on expression in E. coli: not soluble

## MKFLQKEELRTLLQSLDLQSGINNDWFLLLIAKTGMRYAEALALTPSDFDWVNATVTIDKSWDYKTHRGFKKTKSTASDREIAIDWQIVGQFKPLIQDLPANDPIFIEKTERGTYKKQYNSTMNNYLEAKCKTLTITVISLHALRHTHASVLLAEGVSIHTISARLGHADVGVTQEIYAHVLDELQKKDDQKMMSVLMQIALEHHHHHH
  soluble on expression in E. coli: soluble

## MGHHHHHHSHMTKIIPVASGKGGVGKTSFVANVGYKLSSLGKTVILVDLDLGGSNLHTCLGVKNKGVGIGSFINKKSKSFSDLVCKTSYDKLYLIPGDALYTGTANLPFSIKKKIIESIQKDLIADFIFLDLGSGTSYNTIDFYLASYSGVIVTIPETPSILNAYSFLKNALYRLLYLGFP
  soluble on expression in E. coli: not soluble

## MRSQPTVSVIVPARNEAGNIAAAVERLPELGAETELIFVEGHSRDQTWETIEQTVAEYQGPLKLLACRQTGKGKADAVRLGFDKASGDILMILDADLTVQPEDLGHFYRAIASGRGEFINGSRLVYPRSRLAMPGLNTLANRTFALIFSFLLGQPLKDTLCGTKVLWKTDYDRVAAGRKYFGDFDPFGDFDLLFGAAKLGLEIVEVPVRYQERSYGSSNIAHVREGLILARMCLYAAGKLKFPLEHHHHHH
  soluble on expression in E. coli: not soluble

## MAHHHHHHMPPKGFKSNVSPEEAIAARKEKVELLSQQCAAVEKMLSICTDQGLRLNAEIAELERRIAETEVLTEQASRDLDVTVKIVTSYATSNLDQLQQRRLNMEKTAHEAEAENEALRAKIAELTGRREAEIEQWEARVEEQQALMNQKALDFGMQLKETLARRYATV
  soluble on expression in E. coli: not soluble

## LSSPQNILVCVTQQITCERLILKAAELRNELKGELFVIHVAKNEWNFLDNIKEGEALEYLFKISKSVGANLSVLKSDDIVQTIVNFAKENKITHIVMGESPNDHKENNFYNELKRLLSNVEILVIPQAGI
  soluble on expression in E. coli: not soluble

## MQSINLPVDHSKIDANFEGYKVSMNNVHFSSKSLDQNLCLRAPSNEMITLQHMKVFSNDNQLFCDYSKCTDSQQFLYRILDTGHIQAMVYEKKTQIWNTSIVGSIDVGTNASSAFPTNLLFTENNLVVACNGISEITVFLAVSDSNWVKMLEHKVSEQGLSLIEARILNGKLNILAYHVESDDSKKTRSRIHSIRINLDDIDYADSLTVEKSMDLIQNGHFETCTFTNNGEIIFLSSEKPHVEGQQEDMEEKATSGQSKPKPTIEEQSRYLVDIKQLITPFDGDASNYLLFKSTFDYLVHNNHFLEINMKNVALVNALTGDAKQFIVTSNIMEMGYKLTLENLEWTFNRPGFQMRLHSEMLERIKFDENDYSQMETALIKYCSIAREIQLWCGQLFTLFGFHRRITGCDRAQMEHSWEQTGNIIQVAFKLKSEISKEDVKIDTTKTGIRLIVKDLTLLSGKLSGEIDENDVEICADQKTNSLKLKLKSIDDKKWEKLISVEYDTLKSLEDSEIKRTMKGEQVIESDEPMEECDETEGSMAFYWVDQESGKVLKQCDVSGSQVLFTSRQSSTSPALICLRHDVDGLLWSFDESAPSHVATLQAFGYVQASKTSRLWSGCSPNKSLACIVEGNNRVLLYSQKVEVSGSLSNRKTSQTVSHVSKQHLLRVECSDPIRGVQLTDTHLFAATKSHIHVAELNL
  soluble on expression in E. coli: not soluble

## MGSDKIHHHHHHMNPVLKSSKLVIFDLDGTLYEGTDHFDYYANHLKQNVPQSQQLDFWRDYTAMKDGHHPVQIGKGYDVKRDYILTIDPMTISVQSVQTWDGSYVPAEEWETLYSDPVSFDFETIIAVGDGWWYPFVTAKHYGVEDCYASYVATKEYMVTDEFELTPLPGLREGLIELKATKEIVLVTNSDREDVQRLLHELHLHDVFNHIITSAKKPTRTTDIFKEVVHQYEVDMSQVVSVGDNFMNEIAQALTLGMQGIYIHPQRASEVAHDHLTVIRSVVELFKN
  soluble on expression in E. coli: not soluble

## MEKLRIKGMSYTMCSGKFSIDKEMAETQHGTTVVKVKYEGAGAPCKVPIEIRDVNKEKVVGRIISSTPLAENTNSVTNIELEPPFGDSYIVIGVGNSALTLHWFRKGSSIGK
  soluble on expression in E. coli: soluble

## MSLSSLGEELETKISEEVGFKPLGIKRILPAASTKLPFASLDNFAIDNHNNKYAAASGELLICGDLQKLREYVTNDNEEDNYEPEYKHEISNIIALKFMNGKLILVTKSGRICEYSTENLNQELMNHELKLDLVSVKTLPSKIIMLDSSNVLKGLSLSNLNLENIAENISSFDVLYDKLVYISVLKDIYVSDTISNGVNKEIILPESLSEELDDGYEALDIKILSENEYFVVFGNNVSPDESDPSYDHKTYVVSQKEESVVYQETFDIAPAFASVLRYPCYYNVILPGIFEEDKNVNIIGSATSSEISVWDSVNVVQPDQDSERAVFPISKETDEDTTPIGMCLDFSTVGEIPEPCPGVDNTDSLPLVYSLTNEGFLQINGFYHTGLIKAGKYDIKLLGERIYSIYEQDGGEVEEGHHHHHH
  soluble on expression in E. coli: soluble

## MEKEKSKTESLKKDEIDEANSESSKVPLAIDPEEAKLPNAGGKSEHMVVNFTSKRMAIKVRCGNALFRVEPTHMIIEPNKCRQLTINRMPGPIQKDKAIVQYLQIENDVQDPKTAFKAADSAGTKIPHLKIKLVAGASGGRQMSREVVDE
  soluble on expression in E. coli: not soluble

## MTIKEDLGRRIKAERNRKQLTQSLLCGDETKLTIRQLQRIEGGQSLPTLEKLEFIADRLGTKIADLLEGSDIQLPDDYWELKGQIVKFPTYADKERLQQKQELIEEIYDKYFDILPEDELLFLDLSENILDSFHEKDIPNIEEIYDDAFEQVLKKETFAFNDYLYMSYFLQKCGKTADYDQTTFKLLEQKLLKQELTVDELYNIELLIAVMEASGVYALHNDYQNLLPLMKKAQRIIDKAQLHTYKPPLLELEAKYYVKVVKDKKKAKELYQQALVMGEVLGDPVIIADVKMEMANDGID
  soluble on expression in E. coli: not soluble

## QQEVYGMMPRDETDSKTASASPWKSARLMVHTVATFNSIKER
  soluble on expression in E. coli: soluble

## MAHHHHHHSLKCILLNQAEELPIEFLPKDGVYGKGKLFDSRNMEIENFTESDILQDARRAAEAHRRARYRVQSIVRPGITLLEIVRSIEDSTRTLLKGERNNGIGFPAGMSMNSCAAHYTVNPGEQDIVLKEDDVLKIDFGTHSDGRIMDSAFTVAFKENLEPLLVAAREGTETGIKSLGVDVRVCDIGRDINEVISSYEVEIGGRMWPIRPISDLHGHSISQFRIHGGISIPAVNNRDTTRIKGDSFYAVETFATTGKGSIDDRPPCSHFVLNTYKSRKLFNKDLIKVYEFVKDSLGTLPFSPRHLDYYGLVKGGSLKSVNLLTMMGLLTPYPPLNDIDGCKVAQFEHTVYLSEHGKEVLTRGDDY
  soluble on expression in E. coli: not soluble

## MGSDKIHHHHHHMPMIHYIFNREIVPPAIEPLLKQLFSGQNFTQSDRLLGYSKGRGITWFLNTQAELGINIVLRHYYRGGLFGKVVKDRYLFQRIDQTRAVQEFNLLTQMQRWHLPVPRPIAVEINKQSIFYRAKIMLEKIEHTQDLSKLLQTQPLVAEQYQQLGQLIRQLHDHQIHHSDLNIHNILLDDNGKFWLIDFDKCCIKAGEEWKQANLNRLLRSFHKEQTRLGIQFHQQNWQSLLTGYQQHNQGDNR
  soluble on expression in E. coli: not soluble

## MGSDKIHHHHHHMDLRQLPALNAIRAFEAAARHENFSRAADELFVTHGAVSHQVRALEEELGVQLFARNGKRLCLTGAGMRYAQQVRTALMMLADATREVRASDRDRRLVVSMLSSFAARFVTPRIGTFIERHPEIDVELQSTNNLTDFARDDVDLAIRFGFGNYPGLHVEPLFDEVFFPACAPTLNGGKLPQTPADLVHYNLLRSDDELWRPWFDAAGLDTLTEPKRGILYQDSSNLLLAAIEGQGIALVRRSLAVHDLLDGRLVRLFDIDGASPWHYFFVCPPPLLNAPRVQAFRAWMFEEVAQFKLLCDELDARRAAGKTPAECAQEGGWKGLRAQP
  soluble on expression in E. coli: not soluble

## AMTGSDGTKILTITRPDTHGTKTSLTARLYSDTTKKATLDTIFTVVTSPDSDKAKMWGHMPETVTAADGAVFKRPLLLKELSSTSGRTAIAEDNEDWAQFTQAQAISTSSNGCGSEYVPSQAGLESLYEANRGNAMKTVQGWPVASSYLSSTTGSSSLEQRDFKAVNLSSGTSSIIPSATKELLTCQ
  soluble on expression in E. coli: not soluble
